Data: patent publication US20250206837A1 (ELIXIRON IMMUNOTHERAPEUTICS HONG KONG, published 2025)
Changes are numbered by the printed parent chain. Names and notes keep the numbering of the source. Values joined by “and” are separate entries in the source; they are usually repeats but may differ in a detail not shown here. Identical values can stand only once.

B1: 117 (antibody, V domains shown)
VH: EVQLVESGGGLVQPGGSLRLSCAASGFTISSFGIHWVRQAPGKGLEWVAWIAPYGGYTYYADSVKGRFTISADTSKNTAYLQMNSLRAEDTAVYYCARSFFGYFDYWGQGTLVTVSS
VL: DIQMTQSPSSLSASVGDRVTITCRASQDVSNWVAWYQQKPGKAPKLLISYATSLYSGVPSRFSGSGSGTDFTLTISSLQPEDFATYYCQQHSNAPLTFGQGTKVEIKR
notes: Full-length IgG, human kappa
B2: 117_31A (antibody, V domains shown)
VH: B1 VH with S31A
VL: B1 VL
notes: full-length IgG, human kappa
B3: 117_30D (antibody, V domains shown)
VH: B1 VH with S30D
VL: B1 VL
notes: full-length IgG, human kappa
B4: 117_57EE (antibody, V domains shown)
VH: B1 VH with Y57E, T58E
VL: B1 VL
notes: full-length IgG, human kappa
B5: 117_57DE (antibody, V domains shown)
VH: B1 VH with Y57D, T58E
VL: B1 VL
notes: full-length IgG, human kappa
B6: 117_28D (antibody, V domains shown)
VH: B1 VH with T28D
VL: B1 VL
notes: full-length IgG, human kappa
B7: 117_28A (antibody, V domains shown)
VH: B1 VH with T28A
VL: B1 VL
notes: full-length IgG, human kappa
B8: 117_31D (antibody, V domains shown)
VH: B1 VH with S31D
VL: B1 VL
notes: full-length IgG, human kappa
B9: 117_32D (antibody, V domains shown)
VH: B1 VH with F32D
VL: B1 VL
notes: full-length IgG, human kappa
B10: 117_30A (antibody, V domains shown)
VH: B1 VH with S30A
VL: B1 VL
notes: full-length IgG, human kappa
B11: 117_30DE (antibody, V domains shown)
VH: B1 VH with S30D, Y57E
VL: B1 VL
notes: full-length IgG, human kappa
B12: 117 (IgG1) (antibody)
heavy: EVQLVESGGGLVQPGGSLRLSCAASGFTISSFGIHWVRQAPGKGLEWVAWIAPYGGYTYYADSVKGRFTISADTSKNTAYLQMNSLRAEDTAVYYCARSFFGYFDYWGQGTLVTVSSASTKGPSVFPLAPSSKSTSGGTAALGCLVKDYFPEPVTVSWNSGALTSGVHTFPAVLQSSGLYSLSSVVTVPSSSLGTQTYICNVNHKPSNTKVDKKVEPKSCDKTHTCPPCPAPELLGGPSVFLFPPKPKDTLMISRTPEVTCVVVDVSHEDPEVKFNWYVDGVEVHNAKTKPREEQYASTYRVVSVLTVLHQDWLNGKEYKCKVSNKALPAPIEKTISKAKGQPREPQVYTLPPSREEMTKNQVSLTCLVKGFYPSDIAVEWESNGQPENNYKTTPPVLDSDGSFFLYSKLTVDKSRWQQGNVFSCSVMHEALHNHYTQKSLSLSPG
light: DIQMTQSPSSLSASVGDRVTITCRASQDVSNWVAWYQQKPGKAPKLLISYATSLYSGVPSRFSGSGSGTDFTLTISSLQPEDFATYYCQQHSNAPLTFGQGTKVEIKRTVAAPSVFIFPPSDEQLKSGTASVVCLLNNFYPREAKVQWKVDNALQSGNSQESVTEQDSKDSTYSLSSTLTLSKADYEKHKVYACEVTHQGLSSPVTKSFNRGEC
notes: Human IgG1-N297A, kappa
B13: 117 (IgG4) (antibody)
heavy: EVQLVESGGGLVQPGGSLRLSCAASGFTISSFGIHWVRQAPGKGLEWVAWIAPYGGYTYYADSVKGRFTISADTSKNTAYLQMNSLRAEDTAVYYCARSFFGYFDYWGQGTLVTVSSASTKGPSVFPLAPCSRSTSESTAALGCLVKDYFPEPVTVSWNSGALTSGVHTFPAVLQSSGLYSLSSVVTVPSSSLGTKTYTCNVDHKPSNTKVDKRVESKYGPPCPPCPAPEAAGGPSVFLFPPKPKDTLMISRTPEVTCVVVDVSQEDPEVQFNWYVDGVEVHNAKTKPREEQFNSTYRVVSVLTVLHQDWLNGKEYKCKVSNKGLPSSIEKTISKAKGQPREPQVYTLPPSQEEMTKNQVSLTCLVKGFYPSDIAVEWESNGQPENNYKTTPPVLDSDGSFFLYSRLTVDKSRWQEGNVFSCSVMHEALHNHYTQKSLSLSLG
light: B12 light
notes: Human IgG4-S228P/F234A/L235A, kappa
B14: 117_30AA (IgG4) (antibody, V domains shown)
VH: B1 VH with S30A, S31A
VL: B1 VL
notes: Human IgG4-S228P-FALA, kappa
B15: 117_54E (IgG1) (antibody, V domains shown)
VH: B1 VH with Y54E
VL: B1 VL
B16: 117_31A (IgG1) (antibody)
heavy: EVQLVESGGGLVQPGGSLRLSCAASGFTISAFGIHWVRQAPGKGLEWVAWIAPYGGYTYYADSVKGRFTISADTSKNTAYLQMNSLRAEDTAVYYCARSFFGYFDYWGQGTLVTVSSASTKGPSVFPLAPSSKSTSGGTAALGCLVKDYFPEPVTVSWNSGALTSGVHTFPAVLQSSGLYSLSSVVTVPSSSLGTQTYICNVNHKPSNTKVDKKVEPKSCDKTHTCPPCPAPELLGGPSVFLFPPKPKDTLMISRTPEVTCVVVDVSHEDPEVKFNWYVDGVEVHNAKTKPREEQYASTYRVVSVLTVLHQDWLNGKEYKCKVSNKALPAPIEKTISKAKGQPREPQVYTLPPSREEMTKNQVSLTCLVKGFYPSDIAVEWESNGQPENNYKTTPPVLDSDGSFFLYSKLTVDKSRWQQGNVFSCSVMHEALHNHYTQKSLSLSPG
light: B12 light
B17: 117_30DE (IgG4) (antibody, V domains shown)
VH: B1 VH with S30D, Y57E
VL: B1 VL
notes: Human IgG4-S228P-FALA, kappa
B18: 117_57D (IgG1) (antibody)
heavy: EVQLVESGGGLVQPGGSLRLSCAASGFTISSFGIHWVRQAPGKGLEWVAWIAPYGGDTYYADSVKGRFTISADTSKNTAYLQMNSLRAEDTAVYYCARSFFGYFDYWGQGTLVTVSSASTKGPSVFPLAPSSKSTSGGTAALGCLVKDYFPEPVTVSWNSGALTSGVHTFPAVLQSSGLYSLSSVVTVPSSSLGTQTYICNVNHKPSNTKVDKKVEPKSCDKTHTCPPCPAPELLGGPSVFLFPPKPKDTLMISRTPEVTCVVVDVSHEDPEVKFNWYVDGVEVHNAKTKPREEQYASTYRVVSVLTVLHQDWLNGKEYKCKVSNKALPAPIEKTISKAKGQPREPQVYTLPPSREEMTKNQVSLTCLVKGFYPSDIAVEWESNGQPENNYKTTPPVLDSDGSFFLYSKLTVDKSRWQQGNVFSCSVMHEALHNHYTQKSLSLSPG
light: B12 light
B19: 117_31A (IgG4) (antibody)
heavy: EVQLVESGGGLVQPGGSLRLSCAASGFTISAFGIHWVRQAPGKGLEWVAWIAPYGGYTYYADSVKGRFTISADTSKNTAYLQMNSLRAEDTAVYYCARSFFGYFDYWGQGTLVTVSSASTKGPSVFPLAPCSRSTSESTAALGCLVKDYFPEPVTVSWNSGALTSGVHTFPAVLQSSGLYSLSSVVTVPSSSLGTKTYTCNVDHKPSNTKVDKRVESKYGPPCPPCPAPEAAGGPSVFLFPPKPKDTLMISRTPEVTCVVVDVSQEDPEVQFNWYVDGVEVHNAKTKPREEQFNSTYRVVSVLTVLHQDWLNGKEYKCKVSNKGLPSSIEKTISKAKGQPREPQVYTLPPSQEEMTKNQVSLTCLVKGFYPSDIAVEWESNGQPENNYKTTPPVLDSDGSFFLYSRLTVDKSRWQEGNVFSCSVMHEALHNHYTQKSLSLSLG
light: B12 light
B20: 117_DA57E (IgG4) (antibody, V domains shown)
VH: B1 VH with S30D, S31A, Y57E
VL: B1 VL
notes: Human IgG4-S228P-FALA, kappa
B21: 117_57D (IgG4) (antibody)
heavy: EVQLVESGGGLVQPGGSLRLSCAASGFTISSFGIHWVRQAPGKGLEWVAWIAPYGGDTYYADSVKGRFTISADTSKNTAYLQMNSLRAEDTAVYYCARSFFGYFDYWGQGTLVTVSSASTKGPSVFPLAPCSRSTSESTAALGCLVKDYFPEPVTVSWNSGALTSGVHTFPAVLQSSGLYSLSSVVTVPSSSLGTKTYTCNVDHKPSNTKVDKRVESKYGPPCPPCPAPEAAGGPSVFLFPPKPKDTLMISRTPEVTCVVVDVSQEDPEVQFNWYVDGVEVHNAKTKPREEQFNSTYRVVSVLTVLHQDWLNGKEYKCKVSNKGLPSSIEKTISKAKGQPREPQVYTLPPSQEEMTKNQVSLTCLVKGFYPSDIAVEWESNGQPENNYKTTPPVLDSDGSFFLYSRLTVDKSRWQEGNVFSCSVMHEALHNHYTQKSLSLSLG
light: B12 light
notes: Human IgG4-S228P-FALA, kappa
B22: 117_30DA (IgG4) (antibody, V domains shown)
VH: B1 VH with S30D, S31A
VL: B1 VL
notes: Human IgG4-S228P-FALA, kappa
B23: 117_57EE (IgG1) (antibody, V domains shown)
VH: B1 VH with Y57E, T58E
VL: B1 VL
B24: 117_57E (IgG4) (antibody)
heavy: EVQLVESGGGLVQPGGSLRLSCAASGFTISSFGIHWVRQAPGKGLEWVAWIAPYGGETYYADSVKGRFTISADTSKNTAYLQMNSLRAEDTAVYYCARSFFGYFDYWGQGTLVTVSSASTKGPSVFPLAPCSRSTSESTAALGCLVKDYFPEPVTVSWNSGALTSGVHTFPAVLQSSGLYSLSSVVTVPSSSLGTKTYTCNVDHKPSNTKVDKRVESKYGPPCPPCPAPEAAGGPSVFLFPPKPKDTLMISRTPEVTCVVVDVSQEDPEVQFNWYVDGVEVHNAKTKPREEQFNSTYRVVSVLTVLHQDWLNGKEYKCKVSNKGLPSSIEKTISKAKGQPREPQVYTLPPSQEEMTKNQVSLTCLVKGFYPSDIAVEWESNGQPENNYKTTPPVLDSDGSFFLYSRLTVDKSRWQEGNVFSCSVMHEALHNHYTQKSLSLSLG
light: B12 light
notes: Human IgG4-S228P-FALA, kappa
B25: 117_57E (IgG1) (antibody)
heavy: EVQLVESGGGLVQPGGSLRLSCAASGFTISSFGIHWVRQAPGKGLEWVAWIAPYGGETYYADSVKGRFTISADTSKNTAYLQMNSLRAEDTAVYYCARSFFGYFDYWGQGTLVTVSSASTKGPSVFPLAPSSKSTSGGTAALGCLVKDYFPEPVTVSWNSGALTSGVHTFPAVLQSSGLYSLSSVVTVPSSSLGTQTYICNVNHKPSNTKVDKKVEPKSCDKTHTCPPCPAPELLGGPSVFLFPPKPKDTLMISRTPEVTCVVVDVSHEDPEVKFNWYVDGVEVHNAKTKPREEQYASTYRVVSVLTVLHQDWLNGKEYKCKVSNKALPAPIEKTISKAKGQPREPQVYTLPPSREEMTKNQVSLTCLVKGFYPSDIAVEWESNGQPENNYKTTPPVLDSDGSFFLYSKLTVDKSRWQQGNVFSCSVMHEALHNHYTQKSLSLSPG
light: B12 light
B26: 117_DA57D (IgG4) (antibody, V domains shown)
VH: B1 VH with S30D, S31A, Y57D
VL: B1 VL

Columns and labels:
[1] = biological target: T1, mouse CD36-His overexpressed on stable F293 cells (mouse, UniProt Q08857 1-472); test: flow cytometry, F293 cells overexpressing mouse CD36
T1 construct: Gene segment from Sino Biological; also called F293/mCD36; mCD36; not shown: His tag
T1 sequence (Q08857 whole entry): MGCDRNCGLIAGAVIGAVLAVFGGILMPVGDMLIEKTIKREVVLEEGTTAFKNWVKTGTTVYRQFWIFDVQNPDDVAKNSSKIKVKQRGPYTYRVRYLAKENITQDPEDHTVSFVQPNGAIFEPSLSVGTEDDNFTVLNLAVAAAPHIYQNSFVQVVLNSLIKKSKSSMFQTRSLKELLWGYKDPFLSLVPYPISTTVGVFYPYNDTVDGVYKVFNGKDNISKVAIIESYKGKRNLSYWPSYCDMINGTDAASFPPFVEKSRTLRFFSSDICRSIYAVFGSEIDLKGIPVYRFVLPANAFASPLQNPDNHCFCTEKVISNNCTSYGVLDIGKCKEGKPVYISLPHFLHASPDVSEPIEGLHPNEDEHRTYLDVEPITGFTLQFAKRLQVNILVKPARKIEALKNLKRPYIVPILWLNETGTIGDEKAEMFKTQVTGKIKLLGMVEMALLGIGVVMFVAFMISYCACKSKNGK
Source text: (§1) After washing with FACS buffer (2% FBS in PBS), the cells were stained with anti-human IgG-Alexa Fluor 647 and analyzed by Attune NxT Flow Cytometer (Thermo Scientific).

[2] = biological target: T2, full-length human CD36-Flag overexpressed on stable F293 cells (human, UniProt P16671 2-472); test: flow cytometry, F293 cells overexpressing human CD36
T2 construct: Gene segment from Sino Biological; also called F293/hCD36; hCD36; not shown: Flag tag
T2 sequence (P16671 2-472): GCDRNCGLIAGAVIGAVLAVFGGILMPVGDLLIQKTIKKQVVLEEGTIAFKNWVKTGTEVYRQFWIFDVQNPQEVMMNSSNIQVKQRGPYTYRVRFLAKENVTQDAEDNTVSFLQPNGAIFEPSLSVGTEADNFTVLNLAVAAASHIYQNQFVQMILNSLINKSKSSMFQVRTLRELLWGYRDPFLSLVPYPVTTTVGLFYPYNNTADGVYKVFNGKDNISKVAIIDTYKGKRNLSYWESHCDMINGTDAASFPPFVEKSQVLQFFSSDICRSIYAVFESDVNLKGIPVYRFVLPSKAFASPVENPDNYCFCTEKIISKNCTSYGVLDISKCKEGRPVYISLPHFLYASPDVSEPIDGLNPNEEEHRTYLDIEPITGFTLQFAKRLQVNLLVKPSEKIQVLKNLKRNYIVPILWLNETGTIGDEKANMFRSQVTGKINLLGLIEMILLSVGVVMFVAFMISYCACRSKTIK
Source text: as §1

[3] = biological target: T2, full-length human CD36-Flag …; test: cell-based or functional assay
[4] = biological target: T3, rhesus CD36-His overexpressed on stable F293 cells (rhesus, UniProt P16671 2-472 (human entry)); test: flow cytometry, F293 cells overexpressing rhesus CD36
T3 construct: Gene segment from Sino Biological; also called F293/rhesusCD36; not shown: His tag
T3 sequence (P16671 other isoform, or with tags, fused parts or gaps): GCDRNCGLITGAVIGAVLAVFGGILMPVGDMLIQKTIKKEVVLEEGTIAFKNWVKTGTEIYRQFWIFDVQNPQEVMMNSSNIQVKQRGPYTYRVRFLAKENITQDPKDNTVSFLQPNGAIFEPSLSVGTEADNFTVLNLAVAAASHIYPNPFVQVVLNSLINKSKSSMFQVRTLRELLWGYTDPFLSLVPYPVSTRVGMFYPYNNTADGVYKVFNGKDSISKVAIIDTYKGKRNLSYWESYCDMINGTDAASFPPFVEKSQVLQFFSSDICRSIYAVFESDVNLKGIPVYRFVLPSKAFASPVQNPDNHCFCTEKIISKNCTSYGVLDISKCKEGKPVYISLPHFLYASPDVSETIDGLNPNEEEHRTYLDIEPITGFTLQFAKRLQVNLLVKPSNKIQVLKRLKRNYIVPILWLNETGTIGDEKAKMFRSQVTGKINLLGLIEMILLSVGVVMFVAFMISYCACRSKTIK
Source text: as §1

[5] = biological target: T4, Recombinant His-tagged human CD36.ECD protein (Sino Biological) (human, UniProt P16671 30-439); test: ELISA, coated human CD36.ECD (FIG. 2B)
T4 construct: Bought protein; also called hCD36.ECD; hCD36; not shown: His tag
T4 sequence (P16671 30-439 limits assumed): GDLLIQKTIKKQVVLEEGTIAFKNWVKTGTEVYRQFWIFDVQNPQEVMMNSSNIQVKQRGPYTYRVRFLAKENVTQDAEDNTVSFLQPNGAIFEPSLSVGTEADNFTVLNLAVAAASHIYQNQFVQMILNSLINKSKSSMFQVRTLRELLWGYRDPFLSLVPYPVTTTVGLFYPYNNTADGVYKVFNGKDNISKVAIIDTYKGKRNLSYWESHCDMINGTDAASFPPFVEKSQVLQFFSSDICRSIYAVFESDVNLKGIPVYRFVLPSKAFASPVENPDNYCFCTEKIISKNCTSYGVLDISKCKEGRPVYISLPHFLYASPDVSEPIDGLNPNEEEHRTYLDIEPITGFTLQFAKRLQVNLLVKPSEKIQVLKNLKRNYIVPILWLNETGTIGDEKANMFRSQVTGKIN
Experimental: ELISA materials and methods: Recombinant His-tagged human CD36.ECD protein or His-tagged mouse CD36.ECD protein (both from Sino Biological) was immobilized on 96 well microtiter plate at a concentration of 1 μg/mL in Coating Solution (SeraCare) overnight at 4° C. The wells were washed with wash solution (0.05% Tween20 in PBS) and blocked with 1% BSA in PBS. Serial dilutions of anti-CD36 antibodies were added to wells. After incubation at 37° C. for 1 h, the wells were washed with wash solution. Peroxidase-conjugated Goat anti-human kappa Light chain antibody (Sigma) was applied to each well at 37° C. for 1 h incubation. After washing, the wells were developed with TMB substrate for 5-10 min at room temperature and then stopped with 1 N HCl. Thereafter absorbance was measured at 450 nm and 650 nm. EC50 values were calculated through GraphPad Prism7.
The competitor anti-CD36 antibody ONA, which is derived from clone “ONA-0-v1” as disclosed in WO2021176424A1 in hIgG4-S228P-FALA format.

[6] = biological target: T4, Recombinant His-tagged human CD36.ECD …; test: BLI (Octet), antibody on AHC sensor, His-tagged hCD36.ECD in solution, 1:1 fit
Experimental: BLI assay materials and method: Kinetic rate constants, ka and kd, for binding of the anti-CD36 antibodies to human CD36 were measured by Bio-Layer Interferometry (BLI) (ForteBio Octet RED96). […] Rate constants were calculated by curve fitting analyses (1:1 Langmuir model) of binding response with a 2.5-minute association and 5-minute dissociation interaction time.

| Binder | Kd [6] | koff [6] | kon [6] | also measured |
| --- | --- | --- | --- | --- |
| B1 | – | – | – | EC50 [1]: 0.46 µg/mL and 0.361 µg/mL; EC50 [2]: 0.18 µg/mL and 0.123 µg/mL; oxLDL uptake IC50 (nM), F293/hCD36 [3]: 0.702 nM; EC50 [4]: 0.886 µg/mL and 0.582 µg/mL |
| B2 | – | – | – | EC50 [5]: 0.0991 nM |
| B3 | – | – | – | EC50 [5]: 0.141 nM |
| B4 | – | – | – | EC50 [1]: 0.319 µg/mL; EC50 [2]: 0.093 µg/mL; oxLDL uptake IC50 (nM), F293/hCD36 [3]: 0.348 nM; EC50 [4]: 0.407 µg/mL |
| B5 | – | – | – | EC50 [1]: 0.447 µg/mL; EC50 [2]: 0.129 µg/mL; EC50 [4]: 0.529 µg/mL |
| B6 | – | – | – | EC50 [5]: 0.0735 nM |
| B7 | – | – | – | EC50 [5]: 0.129 nM |
| B8 | – | – | – | EC50 [5]: 0.0375 nM |
| B9 | – | – | – | EC50 [5]: 0.0276 nM |
| B10 | – | – | – | EC50 [5]: 0.0964 nM |
| B11 | – | – | – | EC50 [1]: 0.342 µg/mL; EC50 [2]: 0.107 µg/mL; oxLDL uptake IC50 (nM), F293/hCD36 [3]: 0.299 nM; EC50 [4]: 0.403 µg/mL |
| B12 | 4.79 nM and 6.72 nM | 0.00213 s⁻¹ and 0.00235 s⁻¹ | 445000 M⁻¹ s⁻¹ and 350000 M⁻¹ s⁻¹ | – |
| B13 | 6.49 nM | 0.0025 s⁻¹ | 386000 M⁻¹ s⁻¹ | – |
| B14 | 5.74 nM | 0.00282 s⁻¹ | 491000 M⁻¹ s⁻¹ | – |
| B15 | 4.16 nM | 0.00407 s⁻¹ | 978000 M⁻¹ s⁻¹ | – |
| B16 | 4.05 nM | 0.00182 s⁻¹ | 449000 M⁻¹ s⁻¹ | – |
| B17 | 3.09 nM | 0.000981 s⁻¹ | 317000 M⁻¹ s⁻¹ | – |
| B18 | 4.69 nM | 0.00175 s⁻¹ | 373000 M⁻¹ s⁻¹ | – |
| B19 | 4.32 nM | 0.00205 s⁻¹ | 475000 M⁻¹ s⁻¹ | – |
| B20 | 2.52 nM | 0.000803 s⁻¹ | 319000 M⁻¹ s⁻¹ | – |
| B21 | 4.96 nM | 0.00167 s⁻¹ | 336000 M⁻¹ s⁻¹ | – |
| B22 | 3.91 nM | 0.00133 s⁻¹ | 339000 M⁻¹ s⁻¹ | – |
| B23 | 4.27 nM | 0.00155 s⁻¹ | 364000 M⁻¹ s⁻¹ | – |
| B24 | 5.28 nM | 0.00171 s⁻¹ | 325000 M⁻¹ s⁻¹ | – |
| B25 | 4.93 nM | 0.00182 s⁻¹ | 370000 M⁻¹ s⁻¹ | – |
| B26 | 2.64 nM | 0.000838 s⁻¹ | 317000 M⁻¹ s⁻¹ | – |
